Key:
[1] = biological target: T1, native CD73, MDA-MB-231 cells (Homo sapiens, UniProt P21589); assay: Flow cytometry binding to native CD73, MDA-MB-231 cells
T1 construct: native CD73 expressed on human, murine, and cynomolgus monkey cell lines; endogenous in cells; host or cells: MDA-MB-231
T1 sequence (P21589 27-549): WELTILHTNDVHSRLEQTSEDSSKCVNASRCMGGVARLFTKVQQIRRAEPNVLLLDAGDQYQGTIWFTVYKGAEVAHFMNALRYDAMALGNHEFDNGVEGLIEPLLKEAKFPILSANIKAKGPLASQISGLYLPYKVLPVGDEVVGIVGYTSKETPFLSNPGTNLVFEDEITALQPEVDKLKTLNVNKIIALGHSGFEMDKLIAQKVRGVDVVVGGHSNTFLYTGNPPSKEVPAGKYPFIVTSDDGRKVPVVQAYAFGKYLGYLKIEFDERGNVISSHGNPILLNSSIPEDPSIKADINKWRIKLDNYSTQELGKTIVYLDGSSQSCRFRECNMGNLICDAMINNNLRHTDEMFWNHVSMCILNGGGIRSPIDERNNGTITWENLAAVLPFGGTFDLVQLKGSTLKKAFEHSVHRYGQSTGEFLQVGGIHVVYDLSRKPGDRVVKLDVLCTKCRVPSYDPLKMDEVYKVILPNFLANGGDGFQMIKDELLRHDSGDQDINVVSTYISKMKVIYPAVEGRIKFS
Procedure: (§1) Binding of MEDI9447 to native CD73 expressed on human, murine, and cynomolgus monkey cell lines was characterized by flow cytometry. The cells were incubated with various concentrations of MEDI9447 and antibody binding was monitored with and fluorophore-labeled anti-human Fc antibody. A plot of the median fluorescence intensity as a function of the MEDI9447 concentration was fitted nonlinearly using a one-site binding isotherm model to calculate the equilibrium dissociation constant.
(§2) The affinity of enhanced anti-CD73 antibodies (in IgG1-TM format) to human, murine, and cynomolgus CD73 was determined by flow cytometry and surface plasmon resonsance (SPR) (Table 13). The enhanced antibodies had pM affinity to cellular and recombinant CD73 from the three species.
(§3) All flow cytometry experiments were run at 4C and reagents were prepared in PBS/1% FBS buffer. 10,000 cells were incubated with test antibody in 50 uL volume for 4 hours. Cells were washed twice and incubated in 50 uL goat anti-human IgGFc-AlexaFluor647 conjugate for 15 minutes. Cells were washed, resuspended in buffer supplemented with Dapi, and analyzed on a flow cytometer. […] For the determination of KD values, a plot of the median fluorescence intensity as a function of test antibody concentration was fitted nonlinearly using a one site binding isotherm model.

native CD73, 4T1 cells = biological target: T2, native CD73, 4T1 cells (Mus musculus, UniProt Q61503); assay: Flow cytometry binding to native CD73, 4T1 cells; details: as measured by flow cytometry; read-out: KD, CD73 on the surface of murine 3T1 cells
T2 construct: native CD73 expressed on human, murine, and cynomolgus monkey cell lines; endogenous in cells; host or cells: 4T1
T2 sequence (Q61503 29-551): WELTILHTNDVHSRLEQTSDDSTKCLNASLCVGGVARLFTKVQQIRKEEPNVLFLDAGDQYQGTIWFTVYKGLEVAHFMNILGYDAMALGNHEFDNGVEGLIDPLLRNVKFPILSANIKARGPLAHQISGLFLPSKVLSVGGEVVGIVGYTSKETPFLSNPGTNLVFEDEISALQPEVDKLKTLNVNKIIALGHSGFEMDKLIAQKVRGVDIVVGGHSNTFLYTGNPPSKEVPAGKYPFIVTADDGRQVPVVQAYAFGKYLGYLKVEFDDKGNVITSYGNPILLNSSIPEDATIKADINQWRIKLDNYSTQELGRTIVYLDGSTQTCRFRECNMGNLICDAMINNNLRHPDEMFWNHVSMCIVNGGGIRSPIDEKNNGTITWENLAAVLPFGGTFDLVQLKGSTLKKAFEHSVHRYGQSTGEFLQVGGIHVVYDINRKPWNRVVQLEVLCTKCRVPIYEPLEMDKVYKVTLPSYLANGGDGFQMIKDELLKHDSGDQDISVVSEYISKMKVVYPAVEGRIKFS
Procedure: as §1, §2, §3

[2] = biological target: T3, CD73 on the cell surface of MDA-MB-231 cells (Homo sapiens, UniProt P21589); assay: Antibody-mediated internalization or shedding of CD73 by flow cytometry; type: cell-based; details: for Percentage of CD73 remaining on the cell surface: 100 nM antibody, 37° C.
T3 construct: native CD73 expressed on human, murine, and cynomolgus monkey cell lines; endogenous in cells; host or cells: MDA-MB-231
T3 sequence (P21589 27-549): T1 sequence (P21589 27-549)
Procedure: Antibody-mediated internalization or shedding of CD73 was assessed by flow cytometry. MDA-MB-231 cells were incubated in presence of 100 nM MEDI9447 or negative control antibody R347 in growth medium at 37° C. for 0-4 hours. Cells were washed and resuspended in ice-cold PBS. The presence of CD73 on the cell surface was detected by adding 10 nM DyLight488-labeled detection antibody. Cells were incubated for 15 minutes, washed and analyzed by flow cytometry. The detection antibody binds to an epitope of CD73 that is different from the MEDI9447 epitope and both antibodies simultaneously bind to CD73 without interference.

[3] = system: CT26 murine syngeneic tumors; assay: CT26 syngeneic tumor model, MEDI9447 monotherapy; type: in vivo, Balb/C mice
Procedure: CT26 cells, which are derived from a murine colon cancer, were established by subcutaneous (SC) injection of 5×10^5 cells suspended in 0.1 mL of PBS into the right flanks of 4-to-6-week-old female mice. The mice were treated with MEDI9447 or with a control antibody.
10 mice per group were used in this study. Animals were randomly assigned into groups. Animals in Group 1 were untreated and Group 2 was administered an isotype control. MEDI9447 was administered to Group 3. Test articles were administered intraperitoneally twice weekly starting on Day 3. On Day 16, 5 animals from each group were necropsied and tumors were isolated.
Tumors were measured on Days 1, 7, 9, 12, 14, and 16 by caliper, and the volumes of tumors were calculated as follows: […] (1) The anticancer effects of MEDI9447 were expressed as percent tumor growth inhibition, which was calculated as follows: (Average tumor volume for MEDI9447/Average tumor volume for R347-TM)×100 (2)
Tumors were isolated for flow cytometry. Tumors were dissected from CT26 tumor-bearing mice on study Day 16. Tumors were cut into small pieces and were digested with collagenase. […] Dissociated cells were pelleted at 1000 rpm for 5 minutes at 4° C. and were re-suspended in fluorescence-activated cell sorting (FACS) buffer. Cells were counted on Vi-Cell using the default setting. […]

## MEDI9447: IgG1 with CD730010-derived VL of SEQ ID NO: 68 and VH of SEQ ID NO: 82
[1]; as measured by flow cytometry, read-out: KD, CD73 on the surface of MB-MDA-231 cells
  Kd: ~0.15 nM
[1]; human, murine and cynomolgus CD73
  KD values by flow cytometry, fold greater than those determined by SPR: 13—126 fold
Native CD73, 4T1 cells
  Kd: ~0.11 nM
[2]; 0 h
  Percentage of CD73 remaining on the cell surface: 100%
[2]; 0.25 h
  Percentage of CD73 remaining on the cell surface: 90%
[2]; 0.5 h
  Percentage of CD73 remaining on the cell surface: 90%
[2]; 1 h
  Percentage of CD73 remaining on the cell surface: 87%
[2]; 2 h
  Percentage of CD73 remaining on the cell surface: 80%
[2]; 4 h
  Percentage of CD73 remaining on the cell surface: 73%
[2]; 4 hours incubation
  CD73 either internalized or shed upon antibody binding: 27%
[3]; CT26, Balb/C mice, 10 mg/kg IP 2X weekly
  tumor growth: inhibited tumor growth
[3]; CT26 tumors harvested study Day 16, flow cytometry
  proportion of tumor-infiltrating MDSCs: reduced
